Data as given in paper PMC13280853.

What was measured:
[1] = biological target: Tenebrio molitor α-amylase (Tenebrio molitor) (UniProt P56634)
[2] = biological target: human salivary α-amylase (human) (UniProt P0DUB6)
[3] = biological target: porcine pancreatic α-amylase (porcine) (UniProt P00690)
Chain of UniProt P00690 (P00690 16-511): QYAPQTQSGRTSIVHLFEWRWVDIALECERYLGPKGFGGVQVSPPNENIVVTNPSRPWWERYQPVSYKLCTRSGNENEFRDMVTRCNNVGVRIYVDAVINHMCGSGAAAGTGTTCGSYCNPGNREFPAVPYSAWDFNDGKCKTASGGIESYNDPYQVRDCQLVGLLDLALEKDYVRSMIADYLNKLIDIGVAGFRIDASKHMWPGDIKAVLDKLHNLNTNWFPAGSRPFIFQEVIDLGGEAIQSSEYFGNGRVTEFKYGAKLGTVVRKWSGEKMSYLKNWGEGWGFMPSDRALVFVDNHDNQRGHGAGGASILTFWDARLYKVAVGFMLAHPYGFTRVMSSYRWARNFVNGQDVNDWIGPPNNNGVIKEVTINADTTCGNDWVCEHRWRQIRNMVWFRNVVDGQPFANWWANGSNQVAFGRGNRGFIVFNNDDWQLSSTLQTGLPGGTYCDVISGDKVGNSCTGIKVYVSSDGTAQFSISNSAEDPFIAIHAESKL

Chain of UniProt P56634 (P56634 whole entry): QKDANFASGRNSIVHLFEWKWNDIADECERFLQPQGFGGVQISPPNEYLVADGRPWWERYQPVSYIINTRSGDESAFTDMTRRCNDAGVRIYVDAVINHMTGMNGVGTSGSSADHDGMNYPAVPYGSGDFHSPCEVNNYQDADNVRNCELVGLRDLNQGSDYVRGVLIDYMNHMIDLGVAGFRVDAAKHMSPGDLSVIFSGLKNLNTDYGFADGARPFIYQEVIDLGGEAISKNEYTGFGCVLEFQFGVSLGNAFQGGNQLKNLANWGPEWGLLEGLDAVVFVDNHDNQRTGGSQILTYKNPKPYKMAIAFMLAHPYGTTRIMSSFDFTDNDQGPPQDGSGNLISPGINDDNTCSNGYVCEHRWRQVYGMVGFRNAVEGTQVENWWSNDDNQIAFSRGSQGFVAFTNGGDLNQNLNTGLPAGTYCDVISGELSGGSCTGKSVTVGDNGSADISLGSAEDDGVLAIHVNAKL
Chain of UniProt P0DUB6 (P0DUB6 16-511): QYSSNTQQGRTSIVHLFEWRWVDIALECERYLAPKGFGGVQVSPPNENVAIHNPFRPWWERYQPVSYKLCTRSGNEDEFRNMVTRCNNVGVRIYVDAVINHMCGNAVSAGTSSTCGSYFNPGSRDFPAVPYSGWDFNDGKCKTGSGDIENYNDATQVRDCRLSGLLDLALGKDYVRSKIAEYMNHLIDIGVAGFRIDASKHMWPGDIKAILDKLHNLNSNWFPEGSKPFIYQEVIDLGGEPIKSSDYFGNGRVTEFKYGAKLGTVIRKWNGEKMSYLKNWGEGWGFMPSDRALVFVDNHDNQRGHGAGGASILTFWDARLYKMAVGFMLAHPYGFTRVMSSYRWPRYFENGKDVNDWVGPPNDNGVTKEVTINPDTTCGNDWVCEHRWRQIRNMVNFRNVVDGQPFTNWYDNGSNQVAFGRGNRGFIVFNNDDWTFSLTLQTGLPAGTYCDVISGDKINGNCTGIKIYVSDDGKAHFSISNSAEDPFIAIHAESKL

Row | inhibition of T. molitor α-amylase activity (starch hydrolysis, DNS reagent; fraction at 50 μg/mL, 37 °C, 30 min; relative to 5 mM EDTA as 100% inhibition) [1] [%] | inhibition of human salivary α-amylase activity (starch hydrolysis, DNS reagent; fraction at 50 μg/mL, 37 °C, 30 min; relative to 5 mM EDTA as 100% inhibition) [2] [%] | inhibition of porcine pancreatic α-amylase activity (starch hydrolysis, DNS reagent; fraction at 50 μg/mL, 37 °C, 30 min; relative to 5 mM EDTA as 100% inhibition) [3] [%] | Substance
1 | 72 | 85 | 81 | subfraction R2 of fraction P10 (lipid transfer protein, Capsicum chinense seeds)
2 | 98 | 93 | 89 | LTP-rich fraction P10 from Capsicum chinense seeds
3 | 55 | 91 | 84 | subfraction R1 of fraction P10 (lipid transfer protein, Capsicum chinense seeds)
4 | 93 | 92 | 80 | subfraction R3 of fraction P10 (lipid transfer protein, Capsicum chinense seeds)
